Experimental findings from article PMC4577081 (PLoS ONE, 2015) are described below.

The target in test [1] is T1, human CD47 on stably transfected rat YB2/0 cells (Homo sapiens, UniProt Q08722).
T1 construct: human CD47 expressed on the surface of YB2/0 cells; also called CD47-transfected YB2/0 cells; source: rat YB2/0 cells, stably transfected, on cells
Briefly: flow cytometry on cells; hybridoma clones (supernatants) tested by FACS on parental or human CD47-transfected rat YB2/0 cells. Conditions: partners not purified.

The target of test [2] is T2, human CD47/mFc fusion protein (extracellular domain of human CD47 fused to mouse Fc) (human, UniProt Q08722).
T2 construct: human CD47 extracellular domain, cloned from a full-length human CD47 cDNA (Open Biosystems); also called huCD47/mFc; hCD47/mFc; source: purified recombinant
Briefly: ELISA; competition: plates coated with 1 μg/ml huCD47/mFc; 10 μg/ml biotin-labeled mouse 5F9 with various concentrations of unlabeled Hu5F9-G4, room temperature 1 hr; HRP-streptavidin. Conditions: both partners purified.

The target in test [3] is T3, cynoCD47/mFc fusion protein (extracellular domain of cynomolgus CD47 fused to mouse Fc) (Macaca fascicularis, UniProt A0A2K5X4I2).
T3 construct: cynomolgus monkey CD47 extracellular domain, cDNA cloned from a cynomolgus spleen cDNA library (BioChain); differs from human CD47 at 3 amino acids in the extracellular domain; also called cyno-CD47 Fc fusion protein; cynomolgus monkey CD47
Briefly: SPR; Biacore 2000; antibody amine coupled to a CM4 chip, CD47 constructs as analyte; 10 mM HEPES pH 7.4, 150 mM NaCl, 0.005% tween-20; 25°C; global fit to a 1:1 model with mass transport. Conditions: both partners purified.

B1: mouse anti-human CD47 monoclonal antibody 5F9 (antibody, V domains shown)
VH: QVQLQQPGAELVKPGASVMMSCKASGYTFTNYNMHWVKQTPGQGLEWIGTIYPGNDDTSYNQKFKDKATLTADKSSSAAYMQLSSLTSEDSAVYYCARGGYRAMDYWGQGTSVTVSS
VL: DVLMTQTPLSLPVSLGDQASISCRSSQSIVYSNGNTYLGWYLQKPGQSPKLLIYKVSNRFSGVPDRFSGSGSGTDFTLKISRVEAEDLGVYHCFQGSHVPYTFGGGTKVEIK
notes: mouse 5F9 VH (IGHV1 family); mouse heavy chain constant region; mouse 5F9 VL (IGKV1 subgroup); mouse light chain constant region; not described beyond the IGKV1 V segment; also called mouse 5F9; parental mouse 5F9; source: hybridoma (spleen cells of immunized Balb/c mice fused with SP2/0 cells); supernatant in the FACS screen; copies: 2 + 2
For B1, the binding result in test [1] and in test [2] was “binds” in each case.

B2: Hu5F9-G4 (humanized 5F9 antibody, human IgG4 with Ser228Pro) (antibody, V domains shown)
VH: QVQLVQSGAEVKKPGASVKVSCKASGYTFTNYNMHWVRQAPGQRLEWMGTIYPGNDDTSYNQKFKDRVTITADTSASTAYMELSSLRSEDTAVYYCARGGYRAMDYWGQGTLVTVSS
VL: DIVMTQSPLSLPVTPGEPASISCRSSQSIVYSNGNTYLGWYLQKPGQSPQLLIYKVSNRFSGVPDRFSGSGSGTDFTLKISRVEAEDVGVYYCFQGSHVPYTFGQGTKLEIK
In test [3], B2 yielded a Kd of 0.01 nM.
